The source of these data is publication PMC5123050.

In the test the target is 32P-labelled ORF145/RIP (protein kinase A recognition sequence and C-terminal His-tag) (Acidianus two-tailed virus (ATV)). As to the kind of experiment: native gel or EMSA; 32P-ORF145/RIP (1 nM) with 1–100 nM Sso RNAP in 10 mM MOPS pH 6.5, 10 mM MgCl2, 260 mM NaCl, 5 mM DTT, 10% glycerol, BSA, 2 mM ATP, 65 °C 5 min; 6% native PAGE; tight binding equation; complexes also resistant to 2 M NaCl. Background: A gel shift assay detects complexes by their altered migration in electrophoresis.

For “Sulfolobus solfataricus (Sso) RNA polymerase, 13 subunits (from UniProt Q980R2 1-880) (complex)”, the Kd – broadly, the equilibrium constant for the complex coming apart – is 12.6 nM. That is a double-digit nanomolar value.
